The subject of data set [1] is OZ142 CF877R zinc finger array (synthetic). The data set is described as follows: one_hybrid. The conditions noted are these: bacterial two-hybrid lacZ; SD 0.16.
Data set [2] relates to OZ140 CF877R zinc finger array (synthetic). Nature of the data set: one_hybrid. The following applies: bacterial two-hybrid lacZ; SD 0.48.
Data set [3] has as its system OZ121 CF877R zinc finger array (synthetic). The data set is described as follows: one_hybrid. The conditions noted are these: bacterial two-hybrid lacZ; SD 0.19.
For data set [4], the system named is OZ141 CF877R zinc finger array (synthetic). The data set is described as follows: one_hybrid. The following applies: bacterial two-hybrid lacZ; SD 0.08.
In data set [5] the test system is OZ128 CF877R zinc finger array (synthetic). The data set is described as follows: one_hybrid. The following applies: bacterial two-hybrid lacZ; SD 0.07.
Data set [6] concerns OZ137 CF877R zinc finger array (synthetic). The data set is described as follows: one_hybrid. The conditions noted are these: bacterial two-hybrid lacZ; SD 0.04.
Data set [7] deals with OZ120 CF877R zinc finger array (synthetic). Nature of the data set: one_hybrid. The conditions noted are these: bacterial two-hybrid lacZ; SD 0.01.
The subject of data set [8] is OZ130 CF877R zinc finger array (synthetic). Nature of the data set: one_hybrid. The conditions noted are these: bacterial two-hybrid lacZ; SD 0.22.
In data set [9] the test system is OZ123 CF877R zinc finger array (synthetic). The data set is described as follows: one_hybrid. The following applies: bacterial two-hybrid lacZ; SD 0.63.
Data set [10] relates to OZ122 CF877R zinc finger array (synthetic). Nature of the data set: one_hybrid. The following applies: bacterial two-hybrid lacZ; SD 0.59.
In data set [11] the test system is OZ135 CF877R zinc finger array (synthetic). Nature of the data set: one_hybrid. The following applies: bacterial two-hybrid lacZ; SD 0.07.
Data set [12] relates to OZ138 CF877R zinc finger array (synthetic). The data set is described as follows: one_hybrid. The conditions noted are these: bacterial two-hybrid lacZ; SD 0.41.
The subject of data set [13] is OZ126 CF877R zinc finger array (synthetic). Nature of the data set: one_hybrid. The following applies: bacterial two-hybrid lacZ; SD 0.28.
Data set [14] deals with OZ132 CF877R zinc finger array (synthetic). The data set is described as follows: one_hybrid. The following applies: bacterial two-hybrid lacZ; SD 0.05.
Data set [15] relates to OZ129 CF877R zinc finger array (synthetic). Nature of the data set: one_hybrid. The conditions noted are these: bacterial two-hybrid lacZ; SD 0.07.
Data set [16] concerns OZ134 CF877R zinc finger array (synthetic). The data set is described as follows: one_hybrid. The following applies: bacterial two-hybrid lacZ; SD 0.19.
Data set [17] deals with OZ133 CF877R zinc finger array (synthetic). Nature of the data set: one_hybrid. The following applies: bacterial two-hybrid lacZ; SD 0.05.
Data set [18] has as its system OZ124 CF877R zinc finger array (synthetic). Nature of the data set: one_hybrid. The following applies: bacterial two-hybrid lacZ; SD 0.20.
For data set [19], the system named is OZ127 CF877R zinc finger array (synthetic). Nature of the data set: one_hybrid. The following applies: bacterial two-hybrid lacZ; SD 0.02.
In data set [20] the test system is OZ139 CF877R zinc finger array (synthetic). The data set is described as follows: one_hybrid. The following applies: bacterial two-hybrid lacZ; SD 0.03.
Data set [21] concerns OZ119 CF877R zinc finger array (synthetic). The data set is described as follows: one_hybrid. The following applies: bacterial two-hybrid lacZ; SD 0.35; site triplets appear printed in F1-F2-F3 order, so 5'-3' triplet order may be reversed.
Data set [22] concerns OZ131 CF877R zinc finger array (synthetic). The data set is described as follows: one_hybrid. The conditions noted are these: bacterial two-hybrid lacZ; SD 0.12.
For data set [23], the system named is OZ136 CF877R zinc finger array (synthetic). Nature of the data set: one_hybrid. The conditions noted are these: bacterial two-hybrid lacZ; SD 0.06.
The test system of data set [24] is OZ125 CF877R zinc finger array (synthetic). Nature of the data set: one_hybrid. The conditions noted are these: bacterial two-hybrid lacZ; SD 0.85.
Data set [25] has as its system T1, CF877 left ZFN (synthetic).
T1 sequence: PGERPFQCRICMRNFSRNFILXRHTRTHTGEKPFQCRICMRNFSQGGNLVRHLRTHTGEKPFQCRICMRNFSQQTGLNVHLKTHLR
Nature of the data set: cell_activity. The conditions noted are these: as pair with right ZFN, K562 nucleofection; up to ~29% with adenovirus in CFBE41o-; exact clone of pair not stated.

Data set [26] has as its system OZ114 CF877L zinc finger array (synthetic). Nature of the data set: one_hybrid. The following applies: bacterial two-hybrid lacZ; SD 0.18.
Data set [27] concerns OZ112 CF877L zinc finger array (synthetic). The data set is described as follows: one_hybrid. The conditions noted are these: bacterial two-hybrid lacZ; SD 0.55.
Data set [28] has as its system OZ116 CF877L zinc finger array (synthetic). The data set is described as follows: one_hybrid. The conditions noted are these: bacterial two-hybrid lacZ; SD 0.38.
Data set [29] relates to OZ118 CF877L zinc finger array (synthetic). Nature of the data set: one_hybrid. The following applies: bacterial two-hybrid lacZ; SD 0.08.
The test system of data set [30] is OZ107 CF877L zinc finger array (synthetic). Nature of the data set: one_hybrid. The following applies: bacterial two-hybrid lacZ; SD 0.58; site triplets appear printed in F1-F2-F3 order, so 5'-3' triplet order may be reversed.
For data set [31], the system named is OZ113 CF877L zinc finger array (synthetic). The data set is described as follows: one_hybrid. The following applies: bacterial two-hybrid lacZ; SD 0.20.
Data set [32] relates to OZ108 CF877L zinc finger array (synthetic). The data set is described as follows: one_hybrid. The conditions noted are these: bacterial two-hybrid lacZ; SD 0.51.
In data set [33] the test system is OZ117 CF877L zinc finger array (synthetic). Nature of the data set: one_hybrid. The following applies: bacterial two-hybrid lacZ; SD 0.33.
The test system of data set [34] is OZ111 CF877L zinc finger array (synthetic). The data set is described as follows: one_hybrid. The following applies: bacterial two-hybrid lacZ; SD 1.90.
Data set [35] has as its system OZ115 CF877L zinc finger array (synthetic). Nature of the data set: one_hybrid. The following applies: bacterial two-hybrid lacZ; SD 0.12.
In data set [36] the test system is OZ109 CF877L zinc finger array (synthetic). Nature of the data set: one_hybrid. The following applies: bacterial two-hybrid lacZ; SD 0.20.
For data set [37], the system named is OZ110 CF877L zinc finger array (synthetic). Nature of the data set: one_hybrid. The conditions noted are these: bacterial two-hybrid lacZ; SD 0.15.

The values below come from patent US20110086015.

Turning to “GAGTGGTTA (double strand) [CF877R half-site]”, the binding signal (fold activation) was determined as 2.73 in [1]; 2.99 in [2]; 2.91 in data set [3]; 2.87 in data set [4]; 2.12 in data set [5]; 2.26 in [6]. Moreover, the binding signal (fold activation) in data set [7] was determined as 2.53; in [8], 2.47; in data set [9] it was 5.03; in data set [10], 4.72; in [11] it was 2.25; in data set [12] it was 2.52. Further, the binding signal (fold activation) in [13] was 2.57; in [14], 1.28; in data set [15], 2.55; in [16], 3.71; in [17] it was 3.24; in [18], 4.41. The binding signal (fold activation) in [19] is 1.6; in data set [20] it was 2.74; in [21], 2.78; in data set [22] it was 2.08; in data set [23] it was 2.16; in [24], 4.
As to “GTGGAATTA (double strand) [CF877L half-site]”, in data set [25], the activity is 1.2 % indels. Besides, the binding signal (fold activation) came out at 2.95 in data set [26]; 2.52 in data set [27]; 2.53 in data set [28]; 3.55 in data set [29]; 1.92 in [30]; 1.61 in data set [31]. The binding signal (fold activation) in [32] turned out to be 2.31; in data set [33], 3.87; in [34], 2.2; in data set [35], 2.71; in data set [36], 2.83; in data set [37], 1.61.
